Results taken from US20230183371A1 (University of Texas, published 2023).

T1: recombinant human CD79b protein (human, UniProt P40259 29-159, limits assumed)
T1 sequence (looked up): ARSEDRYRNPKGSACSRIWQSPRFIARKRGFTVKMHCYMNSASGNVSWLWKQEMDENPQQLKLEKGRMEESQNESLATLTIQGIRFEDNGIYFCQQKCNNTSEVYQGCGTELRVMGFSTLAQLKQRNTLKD

T2: human CD79b expressed on cells (human, UniProt P40259 29-229)
T2 construct: whole, on cells; also called human CD79b expressed on mouse fibroblast L cells; CD79b on B cell lymphoma cell lines (Daudi, SUDHL6)
T2 sequence (looked up): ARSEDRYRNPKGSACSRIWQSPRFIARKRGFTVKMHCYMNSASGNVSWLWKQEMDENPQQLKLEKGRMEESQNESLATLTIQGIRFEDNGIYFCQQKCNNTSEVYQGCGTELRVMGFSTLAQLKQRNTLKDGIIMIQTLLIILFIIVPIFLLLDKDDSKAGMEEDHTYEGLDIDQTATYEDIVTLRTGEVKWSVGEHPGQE


Key:
[1] = molecular target: T1, recombinant human CD79b protein; assay: Octet assay
[2] = molecular target: T1, recombinant human CD79b protein; assay: ELISA on recombinant human CD79b protein
[3] = molecular target: T1, recombinant human CD79b protein; assay: EC50 column of the drawn table; the table does not name the assay, the text gives an ELISA on recombinant human CD79b protein (FIG. 2B)
[4] = molecular target: T2, human CD79b expressed on cells; assay: ELISA on mouse fibroblast L cells expressing human CD79b
Excerpt: Binding of anti-CD79b antibodies to human CD79b: Full length anti-CD79b monoclonal antibodies (clones 5B and 28B) isolated from hybridoma supernatants were used to test binding to human CD79b expressed on mouse fibroblast L cells by ELISA (FIG. 7).

Binder | Kd [1] [nM] | EC50 (read off the curve) [2] [µg/mL] | EC50 [3] [µg/mL] | EC50 [4] [µg/mL] | EC50 (read off the curve) [4] [µg/mL]
anti-human CD79b monoclonal antibody clone 14 (IgG1) (antibody, V domains shown) VH: EVQLQESGPELKKPGETVKISCKASGYTFTDYSMHWVKQAPGKGLKWMGWINTETGEPTYADDFKGRFAFSLETSASTAYLQINNLKNDDTATYFCNMDSWGQGTSVTVSS VL: QIVLTQSPAIMSASPGEKVTMTCSASSSVSYMWWYHQKPGSSPRLLIFDTSNLASGVPVRFSGSGSGTSYSLTISRMEAEDAATYYCQQWTSYPYTFGGGTKLEIK | 1.44 | ~0.02 | 0.0162 |  | 
anti-CD79b monoclonal antibody clone 5B (antibody, V domains shown, Full length monoclonal antibody isolated from hybridoma supernatant) VH: EVQLQESGAELVKPGASVKMSCKASGYTFTSYWMHWVKQRPGQGLEWIGAIDPSDSYTGYNQKFKGKATLTVDTSSSTAYMHLSSLTSEDSAVYFCTRSYYGNSWFDYWGQGTLVTVSA VL: DIVLTQSPASLAVSLGQRATISCKASQSVDYEGDSYMNWYQQKPGQPPKLLIYAASNLESGIPARFSGSGSGTDFTLNIHPVEEEDAATYHCQQSNEDPFTFGGGTKLEIK |  |  |  | 0.0409 | ~0.04
anti-CD79b monoclonal antibody clone 28B (antibody, V domains shown, Full length monoclonal antibody isolated from hybridoma supernatant) VH: EVQLQESGAELVKPGASVKMSCKASGYTFTSYWMHWVKQRPGQGLEWIGAIDPSDSYTGYNQKFKGKATLTVDTSSSTAYMHLSSLTSEDSAVYFCTRSYYGNSWFAYWGQGTLVTVSA VL: DIVLTQSPASLAVSLGQRATISCKASQSVDYDGDSYMNWYQQKPGQPPKLLIYVASNLESGIPARFSGSGSGTDFTLNIHPVEEEDAATYYCQQSNEDPFTFGSGTKLEIN |  |  |  | 0.0252 | ~0.02
anti-human CD79b monoclonal antibody clone 45 (IgG2) (antibody, V domains shown) VH: EVQLQESGAELVRPGALVKLSCRASGFNIKDYYMHWVKQRPEQGLEWIGWIDPENGNSIYDPKFQGKASITADTSSNTAYLQLSSLTSEDTAVYYCAVDLYYGRGTLVTVSA VL: NIMMTQSPSSLAVSAGEKVTMRCKSSQSVLYSSNQKNYLAWYQQKPGQSPKLLIYWASTRESGVPDRFTGSGSGTDFTLTISSVQAEDLAVYYCHQFLSSYTFGGGTKLEIK | 2 | ~0.03 | 0.0301 |  | 
